Reference: patent US20160319033A1 (INSERM INSTITUT NATIONAL DE LA SANTE ET DE LA RECHERCHE …, published 2016)
Blank lines part the entries; values can stand above or below the binder they belong to.

Assays:
[1] = molecular target: T1, human HER3 receptor on cells (human, UniProt P21860 20-1342); experiment: fluorescence of d2-labelled NRG on HER2/HER3-transfected 3T3 fibroblasts; unlabelled NRG varied, displaced molecule: d2-labelled NRG
T1 construct: whole, on cells; also called ErbB3
Method: (§1) After KREBS washing, fluorescence at 620/670 nm was measured using a Pherastar microplate reader.

[2] = molecular target: T1, human HER3 receptor on cells; experiment: flow cytometry competition on SKBR3 cells; NRG varied, displaced molecule: antibody B at a fixed concentration
Method: Cells were then washed and further incubated with a 1:60 dilution of appropriate FITC-conjugated secondary antibody (Sigma) for 45 min on ice, before cytometry analysis on a Quanta apparatus (Beckman-Coulter).

[3] = molecular target: T2, HER3 Snap-tagged, on HEK cells (human, UniProt P21860 20-1342, Snap-tag labelled with Lumi4-terbium cryptate donor); experiment: Tag-Lite HTRF on HER3 Snap-tagged HEK cells; d2-labelled 9F7-F11 varied; without NRG
T2 construct: whole, on cells; also called HER3 Snap-tagged HEK cells; not shown: Snap-tag (CisBio Tag-Lite)
Method: (§2) After 16 h of incubation, the fluorescence of Lumi4-terbium and d2 was measured respectively at 620 and 665 nm (60 μs delay, 400 μs integration) upon 337 nm excitation on a Pherastar FS instrument.

[4] = molecular target: T2, HER3 Snap-tagged, on HEK cells; experiment: Tag-Lite HTRF on HER3 Snap-tagged HEK cells, with NRG against without NRG
Method: as §2

[5] = molecular target: T2, HER3 Snap-tagged, on HEK cells; experiment: Tag-Lite HTRF on HER3 Snap-tagged HEK cells, d2-labelled mAb, without NRG
Method: as §2

[6] = molecular target: T2, HER3 Snap-tagged, on HEK cells; experiment: Tag-Lite HTRF on HER3 Snap-tagged HEK cells; d2-labelled 9F7-F11 varied; co-incubated with NRG (legend printed 'NRG 100 mM')
Method: as §2

[7] = molecular target: T1, human HER3 receptor on cells; experiment: fluorescence of d2-labelled NRG on HER2/HER3-transfected 3T3 fibroblasts; 9F7-F11 varied; half-maximal enhancement of the binding of labelled NRG to HER3
Method: as §1

[8] = molecular target: T2, HER3 Snap-tagged, on HEK cells; experiment: Tag-Lite HTRF on HER3 Snap-tagged HEK cells, d2-labelled mAb, co-incubated with NRG
Method: as §2

IC50 (read off the curve) [1]: ~5 nM | IC50 (read off the curve) [2]: ~2 nM
B1: neuregulin (NRG) (ligand, UniProt Q02297-6 177-241, looked up)
chain: SHLVKCAEKEKTFCVNGGECFMVKDLSNPSRYLCKCPNEFTGDRCQNYVMASFYKHLGIEFMEAE
modifications: also: d2 dye label as tracer, site not given here
notes: also called neuregulin 131 (as printed, probably neuregulin beta1); heregulin

EC50 (read off the curve) [3]: ~2 nM | fold increase of affinity with NRG against without NRG [4]: 6 fold | Kd [5]: 2.33 nM | EC50 (read off the curve) [6]: ~0.5 nM | EC50 (read off the curve) [7]: ~10 nM | Kd [8]: 0.47 nM
B2: murine anti-human-HER3 monoclonal antibody 9F7-F11 (antibody, V domains shown)
VH: EVKLVESGGGLVQPGGSLKLSCAASGFTFSSYTMSWVRQTPEKRLEWVAYISDGGGVTYYPDTIKGRFTISRDNAKNTLYLQMSSLKSEDTAMYYCARDRYGLFAYWGQGTLVTVSA
VL: DIVMTQSQKFMSTSVGDRVSITCKASQNVGIAVAWYQQKPGQSPKLLIYSASNRYTGVPDRFTGSGSGTDFTLTISNMQSEDLADYFCQQYSNYPYTFGGGTKLEIK
notes: Murine hybridoma antibody; also called mAb 9F7-F11; anti-HER3 Ab 9F7-F11
